Tested on: Escherichia coli TOP10
Test: shrunken log2 fold change of peptide-encoding DNA abundance (4.5 h post-induction vs induction); higher = less antimicrobial activity (less host growth inhibition)
Settings: time post-induction: 4.5 h; library: site-saturation at positions 5, 18, 19, 20
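Also: peptides expressed intracellularly from a pBAD plasmid library in pooled LB shake-flask culture, induced with 0.3% L-arabinose, DNA abundance read by NGS, three biological replicates, DESeq2 with apeglm shrinkage.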

Row | Sequence | shrunken log2 fold change
1 | RRIRDRPPRLPRPRPRPHQFPRP | -0.282
2 | RRIRDRPPRLPRPRPRPHVEPRP | -0.109
3 | RRIRDRPPRLPRPRPRPHVHPRP | -0.134
4 | RRIRDRPPRLPRPRPRPHWMPRP | 0.236
5 | RRIRDRPPRLPRPRPRPHYAPRP | -0.00151
6 | RRIRDRPPRLPRPRPRPHYKPRP | -0.297
7 | RRIRDRPPRLPRPRPRPHYQPRP | 0.0231
8 | RRIRDRPPRLPRPRPRPICSPRP | 0.0206
9 | RRIRDRPPRLPRPRPRPIDDPRP | 0.224
10 | RRIRDRPPRLPRPRPRPIDWPRP | 0.129
11 | RRIRDRPPRLPRPRPRPIEDPRP | -0.0411
12 | RRIRDRPPRLPRPRPRPIEHPRP | -0.172
13 | RRIRDRPPRLPRPRPRPIGAPRP | -0.173
14 | RRIRDRPPRLPRPRPRPIKAPRP | -0.149
15 | RRIRDRPPRLPRPRPRPIKLPRP | -0.213
16 | RRIRDRPPRLPRPRPRPIMAPRP | -0.00298
17 | RRIRDRPPRLPRPRPRPIMCPRP | -0.0425
18 | RRIRDRPPRLPRPRPRPIMTPRP | 0.107
19 | RRIRDRPPRLPRPRPRPINLPRP | -0.129
20 | RRIRDRPPRLPRPRPRPIPSPRP | 0.0554
21 | RRIRDRPPRLPRPRPRPIQNPRP | 0.0608
22 | RRIRDRPPRLPRPRPRPIQYPRP | -0.0088
23 | RRIRDRPPRLPRPRPRPIRNPRP | 0.011
24 | RRIRDRPPRLPRPRPRPITAPRP | -0.283
25 | RRIRDRPPRLPRPRPRPITTPRP | 0.0735
26 | RRIRDRPPRLPRPRPRPIVCPRP | 0.0446
27 | RRIRDRPPRLPRPRPRPIWWPRP | 0.498
28 | RRIRDRPPRLPRPRPRPIYFPRP | -0.839

Row | Sequence | shrunken log2 fold change
29 | RRIRDRPPRLPRPRPRPIYNPRP | -0.771
30 | RRIRDRPPRLPRPRPRPKAQPRP | -0.1
31 | RRIRDRPPRLPRPRPRPKCNPRP | -0.13
32 | RRIRDRPPRLPRPRPRPKCWPRP | -0.00042
33 | RRIRDRPPRLPRPRPRPKDLPRP | -0.0191
34 | RRIRDRPPRLPRPRPRPKHAPRP | 0.222
35 | RRIRDRPPRLPRPRPRPKHDPRP | -0.16
36 | RRIRDRPPRLPRPRPRPKHWPRP | 0.723
37 | RRIRDRPPRLPRPRPRPKHYPRP | -0.491
38 | RRIRDRPPRLPRPRPRPKIFPRP | -0.0898
39 | RRIRDRPPRLPRPRPRPKILPRP | 0.042
40 | RRIRDRPPRLPRPRPRPKIVPRP | -0.198
41 | RRIRDRPPRLPRPRPRPKKAPRP | 0.0426
42 | RRIRDRPPRLPRPRPRPKMQPRP | 0.247
43 | RRIRDRPPRLPRPRPRPKNCPRP | -0.15
44 | RRIRDRPPRLPRPRPRPKNGPRP | 0.74
45 | RRIRDRPPRLPRPRPRPKQKPRP | 0.03
46 | RRIRDRPPRLPRPRPRPKQSPRP | 0.00791
47 | RRIRDRPPRLPRPRPRPKQTPRP | 0.0941
48 | RRIRDRPPRLPRPRPRPKRFPRP | -0.017
49 | RRIRDRPPRLPRPRPRPKRSPRP | -0.0252
50 | RRIRDRPPRLPRPRPRPKTFPRP | 0.00972
51 | RRIRDRPPRLPRPRPRPKTRPRP | 0.533
52 | RRIRDRPPRLPRPRPRPKWDPRP | 0.488
53 | RRIRDRPPRLPRPRPRPKWYPRP | -0.0377
54 | RRIRDRPPRLPRPRPRPKYQPRP | -0.452
55 | RRIRDRPPRLPRPRPRPKYRPRP | -0.0164

Source: the supplement of paper PMC9112550, “Optimization of the antimicrobial peptide Bac7 by deep mutational scanning” (BMC Biology, 2022)
